The chains are these.
B1: TMEM59 peptide (residues 268–280), wild type [modified: long spacer (Tds) at the N-terminal end, used for immobilisation; long spacer (Tds) at the N-terminal end, used for immobilisation] [not stated] / GST-HA-ATG16L1(231–607) … (parent)
chain 1: PLPVEQDDDIEVIVDETSDHTEETSPVRAISRAATKRLSQPAGGLLDSITNIFGRRSVSSFPVPQDNVDTHPGSGKEVRVPATALCVFDAHDGEVNAVQFSPGSRLLATGGMDRRVKLWEVFGEKCEFKGSLSGSNAGITSIEFDSAGSYLLAASNDFASRIWTVDDYRLRHTLTGHSGKVLSAKFLLDNARIVSGSHDRTLKLWDLRSKVCIKTVFAGSSCNDIVCTEQCVMSGHFDKKIRFWDIRSESIVREMELLGKITALDLNPERTELLSCSRDDLLKVIDLRTNAIKQTFSAPGFKCGSDWTRVVFSPDGSYVAAGSAEGSLYIWSVLTGKVEKVLSKQHSSSINAVAWSPSGSHVVSVDKGCKAVLWAQY
chain 2: YVPSEKLSIYGDL

In the assay the parent is B1. The assay is described as follows: peptide microarray. The note with it: with GST-HA-ATG16L1(231–607) [human], parent: 100.

For chain 2 Y1H, the percent of parent stood at 30 % WT (ligand 200, 50, 20 nM) and 28 % WT (ligand 800, 600, 400 nM).

With chain 2 Y1G, the percent of parent (ligand 200, 50, 20 nM) is 94 % WT and the percent of parent (ligand 800, 600, 400 nM) was found to be 92 % WT.

For the variant chain 2 Y1L, the percent of parent runs as follows: (ligand 200, 50, 20 nM) 44 % WT; (ligand 800, 600, 400 nM) 41 % WT.

Regarding chain 2 Y1I, the percent of parent by setting is: (ligand 200, 50, 20 nM) 75 % WT; (ligand 800, 600, 400 nM) 79 % WT.

As for chain 2 Y1M, the percent of parent (ligand 200, 50, 20 nM) stood at 12 % WT and the percent of parent (ligand 800, 600, 400 nM) was determined as 10 % WT.

Regarding chain 2 Y1Q, the percent of parent reads like this: (ligand 200, 50, 20 nM) 10 % WT; (ligand 800, 600, 400 nM) 12 % WT.

Regarding chain 2 Y1D, the percent of parent runs as follows: (ligand 200, 50, 20 nM) 10 % WT; (ligand 800, 600, 400 nM) 12 % WT.

Turning to chain 2 Y1T, the percent of parent was determined as 17 % WT (ligand 200, 50, 20 nM) and 17 % WT (ligand 800, 600, 400 nM).

For the variant chain 2 Y1S, the percent of parent is, setting by setting: (ligand 200, 50, 20 nM) 29 % WT; (ligand 800, 600, 400 nM) 28 % WT.

For chain 2 Y1A, the percent of parent (ligand 200, 50, 20 nM) came to 17 % WT and the percent of parent (ligand 800, 600, 400 nM) came to 18 % WT.

Take chain 2 Y1P: the percent of parent is 16 % WT (ligand 200, 50, 20 nM) and 17 % WT (ligand 800, 600, 400 nM).

For the variant chain 2 L7A, the percent of parent runs as follows: (ligand 200, 50, 20 nM) 98 % WT; (ligand 800, 600, 400 nM) 88 % WT.

On to chain 2 L7Q, for which the percent of parent was 11 % WT (ligand 200, 50, 20 nM) and 28 % WT (ligand 800, 600, 400 nM).

Turning to chain 2 L7W, the percent of parent was 38 % WT (ligand 200, 50, 20 nM) and 112 % WT (ligand 800, 600, 400 nM).

As for chain 2 L7T, the percent of parent is, setting by setting: (ligand 200, 50, 20 nM) 38 % WT; (ligand 800, 600, 400 nM) 73 % WT.

As to chain 2 L7P, the percent of parent (ligand 200, 50, 20 nM) came to 13 % WT and the percent of parent (ligand 800, 600, 400 nM) is 11 % WT.

Regarding chain 2 L7R, the percent of parent by setting is: (ligand 200, 50, 20 nM) 32 % WT; (ligand 800, 600, 400 nM) 59 % WT.

Turning to chain 2 L7K, the percent of parent (ligand 200, 50, 20 nM) worked out at 22 % WT and the percent of parent (ligand 800, 600, 400 nM) was 53 % WT.

For the variant chain 2 L7Y, the percent of parent by setting is: (ligand 200, 50, 20 nM) 69 % WT; (ligand 800, 600, 400 nM) 87 % WT.

On to chain 2 L7H, for which the percent of parent reads like this: (ligand 200, 50, 20 nM) 66 % WT; (ligand 800, 600, 400 nM) 103 % WT.

Consider chain 2 L7M, for which the percent of parent turned out to be 39 % WT (ligand 200, 50, 20 nM) and 52 % WT (ligand 800, 600, 400 nM).

Regarding chain 2 L7F, the percent of parent by setting is: (ligand 200, 50, 20 nM) 102 % WT; (ligand 800, 600, 400 nM) 89 % WT.

As for chain 2 L7E, the percent of parent amounted to 3 % WT (ligand 200, 50, 20 nM) and 7 % WT (ligand 800, 600, 400 nM).

Consider chain 2 L7V, for which the percent of parent (ligand 200, 50, 20 nM) stood at 153 % WT and the percent of parent (ligand 800, 600, 400 nM) is 142 % WT.

On to chain 2 L7N, for which the percent of parent by setting is: (ligand 200, 50, 20 nM) 46 % WT; (ligand 800, 600, 400 nM) 75 % WT.

Turning to chain 2 L7G, the percent of parent (ligand 200, 50, 20 nM) was found to be 54 % WT and the percent of parent (ligand 800, 600, 400 nM) came out at 86 % WT.

As to chain 2 L7D, the percent of parent worked out at 11 % WT (ligand 200, 50, 20 nM) and 12 % WT (ligand 800, 600, 400 nM).

Take chain 2 L7I: the percent of parent (ligand 200, 50, 20 nM) came to 83 % WT and the percent of parent (ligand 800, 600, 400 nM) worked out at 95 % WT.

For the variant chain 2 L7S, the percent of parent is 31 % WT (ligand 200, 50, 20 nM) and 58 % WT (ligand 800, 600, 400 nM).

Consider chain 2 Y10S, for which the percent of parent (ligand 800, 600, 400 nM) is 3 % WT.

Take chain 2 Y10N: the percent of parent (ligand 800, 600, 400 nM) was 3 % WT.

Consider chain 2 Y10A, for which the percent of parent (ligand 800, 600, 400 nM) was found to be 4 % WT.

On to chain 2 Y10H, for which the percent of parent (ligand 800, 600, 400 nM) amounted to 3 % WT.

Take chain 2 Y10Q: the percent of parent (ligand 800, 600, 400 nM) was found to be 2 % WT.

Take chain 2 Y10W: the percent of parent (ligand 800, 600, 400 nM) was determined as 135 % WT.

As to chain 2 Y10K, the percent of parent (ligand 800, 600, 400 nM) was found to be 6 % WT.

With chain 2 Y10P, the percent of parent (ligand 800, 600, 400 nM) is 3 % WT.

Take chain 2 Y10M: under “ligand 800, 600, 400 nM”, the percent of parent turned out to be 3 % WT.

Turning to chain 2 Y10V, the percent of parent (ligand 800, 600, 400 nM) was determined as 9 % WT.

As for chain 2 Y10L, the percent of parent (ligand 800, 600, 400 nM) stood at 36 % WT.

Regarding chain 2 Y10E, for the setting “ligand 800, 600, 400 nM”, the percent of parent came to 2 % WT.

With chain 2 Y10F, where the note is “ligand 800, 600, 400 nM”, the percent of parent was found to be 106 % WT.

In the case of chain 2 Y10T, the percent of parent (ligand 800, 600, 400 nM) turned out to be 4 % WT.

Regarding chain 2 Y10G, the percent of parent (ligand 800, 600, 400 nM) came to 2 % WT.

Take chain 2 Y10R: for the setting “ligand 800, 600, 400 nM”, the percent of parent worked out at 5 % WT.

In the case of chain 2 Y10D, the percent of parent (ligand 800, 600, 400 nM) worked out at 4 % WT.

As for chain 2 Y10I, the percent of parent (ligand 800, 600, 400 nM) came out at 21 % WT.

With chain 2 L13P, the percent of parent (ligand 800, 600, 400 nM) came to 94 % WT.

Regarding chain 2 L13E, under “ligand 800, 600, 400 nM”, the percent of parent was found to be 60 % WT.

As for chain 2 L13G, for the setting “ligand 800, 600, 400 nM”, the percent of parent came to 54 % WT.

chain 2 L13V: under “ligand 800, 600, 400 nM”, the percent of parent worked out at 123 % WT.

Consider chain 2 L13H, for which the percent of parent (ligand 800, 600, 400 nM) was found to be 66 % WT.

Turning to chain 2 L13I, the percent of parent (ligand 800, 600, 400 nM) came out at 177 % WT.

chain 2 L13Q: the percent of parent (ligand 800, 600, 400 nM) was 37 % WT.

Take chain 2 L13A: the percent of parent (ligand 800, 600, 400 nM) amounted to 50 % WT.

Turning to chain 2 L13M, under “ligand 800, 600, 400 nM”, the percent of parent came to 36 % WT.

For chain 2 L13R, where the note is “ligand 800, 600, 400 nM”, the percent of parent stood at 48 % WT.

As for chain 2 L13F, where the note is “ligand 800, 600, 400 nM”, the percent of parent worked out at 173 % WT.

With chain 2 L13W, the percent of parent (ligand 800, 600, 400 nM) was found to be 196 % WT.

With chain 2 L13S, the percent of parent (ligand 800, 600, 400 nM) came out at 32 % WT.

With chain 2 L13N, the percent of parent (ligand 800, 600, 400 nM) was determined as 30 % WT.

On to chain 2 L13D, for which the percent of parent (ligand 800, 600, 400 nM) is 27 % WT.

With chain 2 L13K, where the note is “ligand 800, 600, 400 nM”, the percent of parent is 21 % WT.

With chain 2 L13Y, for the setting “ligand 800, 600, 400 nM”, the percent of parent was determined as 201 % WT.

As for chain 2 L13T, the percent of parent (ligand 800, 600, 400 nM) turned out to be 5 % WT.

For the origin of these results see article PMC7679444.
